This passage reports Aβ production in an in vitro γ-secretase assay results from patent US20130149309A1.

The test concerns the target γ-secretase of HEK293 cell membrane preparations. In words: cell-based or functional assay.

Regarding “recombinant gSAP-16K (aa733-854 of the human gSAP), expressed and purified from BL21 DE3 E.coli (from UniProt A4D1B5 733-854)”, the Aβ production in an in vitro γ-secretase assay amounted to 2.4 fold.
